Assay results published in patent US20100087371.

Sequence of hGHQ40N, P01241 (P01241 27-217 Q66N): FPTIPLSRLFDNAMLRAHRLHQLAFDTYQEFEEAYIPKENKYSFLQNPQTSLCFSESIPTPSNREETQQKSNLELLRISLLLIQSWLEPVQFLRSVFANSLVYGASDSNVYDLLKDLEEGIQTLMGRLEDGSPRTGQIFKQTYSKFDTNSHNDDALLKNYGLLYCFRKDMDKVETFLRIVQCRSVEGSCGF
Sequence of hGHQ141N, P01241 (P01241 27-217 Q167N): as the sequence (P01241 27-217 Q66N) above, with N40Q, Q141N counted along it

Protein | Activity towards hGHQ40N (RFU/sec/µg), dansyl-cadaverine incorporation (hGHQ40N, P01241) [RFU/sec/µg] | Activity towards hGHQ141N (RFU/sec/µg), dansyl-cadaverine incorporation (hGHQ141N, P01241) [RFU/sec/µg]
Met-mTGase from S. mobaraensis (protein) MDSDDRVTPPAEPLDRMPDPYRPSYGRAETVVNNYIRKWQQVYSHRDGRKQQMTEEQREWLSYGCVGVTWVNSGQYPTNRLAFASFDEDRFKNELKNGRPRSGETRAEFEGRVAKESFDEEKGFQRAREVASVMNRALENAHDESAYLDNLKKELANGNDALRNEDARSPFYSALRNTPSFKERNGGNHDPSRMKAVIYSKHFWSGQDRSSSADKRKYGDPDAFRPAPGTGLVDMSRDRNIPRSPTSPGEGFVNFDYGWFGAQTEADADKTVWTHGNHYHAPNGSLGAMHVYESKFRNWSEGYSDFDRGAYVITFIPKSWNTAPDKVKQGWP | 5.44 | 1.24
mTGase from S. mobaraensis (protein) DSDDRVTPPAEPLDRMPDPYRPSYGRAETVVNNYIRKWQQVYSHRDGRKQQMTEEQREWLSYGCVGVTWVNSGQYPTNRLAFASFDEDRFKNELKNGRPRSGETRAEFEGRVAKESFDEEKGFQRAREVASVMNRALENAHDESAYLDNLKKELANGNDALRNEDARSPFYSALRNTPSFKERNGGNHDPSRMKAVIYSKHFWSGQDRSSSADKRKYGDPDAFRPAPGTGLVDMSRDRNIPRSPTSPGEGFVNFDYGWFGAQTEADADKTVWTHGNHYHAPNGSLGAMHVYESKFRNWSEGYSDFDRGAYVITFIPKSWNTAPDKVKQGWP | 3.35 | 0.98
AlaPro-mTGase from S. mobaraensis (protein) APDSDDRVTPPAEPLDRMPDPYRPSYGRAETVVNNYIRKWQQVYSHRDGRKQQMTEEQREWLSYGCVGVTWVNSGQYPTNRLAFASFDEDRFKNELKNGRPRSGETRAEFEGRVAKESFDEEKGFQRAREVASVMNRALENAHDESAYLDNLKKELANGNDALRNEDARSPFYSALRNTPSFKERNGGNHDPSRMKAVIYSKHFWSGQDRSSSADKRKYGDPDAFRPAPGTGLVDMSRDRNIPRSPTSPGEGFVNFDYGWFGAQTEADADKTVWTHGNHYHAPNGSLGAMHVYESKFRNWSEGYSDFDRGAYVITFIPKSWNTAPDKVKQGWP | 5.05 | 1.56
GlyPro-mTGase from S. mobaraensis (protein) GPDSDDRVTPPAEPLDRMPDPYRPSYGRAETVVNNYIRKWQQVYSHRDGRKQQMTEEQREWLSYGCVGVTWVNSGQYPTNRLAFASFDEDRFKNELKNGRPRSGETRAEFEGRVAKESFDEEKGFQRAREVASVMNRALENAHDESAYLDNLKKELANGNDALRNEDARSPFYSALRNTPSFKERNGGNHDPSRMKAVIYSKHFWSGQDRSSSADKRKYGDPDAFRPAPGTGLVDMSRDRNIPRSPTSPGEGFVNFDYGWFGAQTEADADKTVWTHGNHYHAPNGSLGAMHVYESKFRNWSEGYSDFDRGAYVITFIPKSWNTAPDKVKQGWP | 4.28 | 1.13
AlaPro-mTGase from S. ladakanum (protein) APDSDERVTPPAEPLDRMPDPYRPSYGRAETIVNNYIRKWQQVYSHRDGRKQQMTEEQREWLSYGCVGVTWVNSGQYPTNRLAFAFFDEDKYKNELKNGRPRSGETRAEFEGRVAKDSFDEAKGFQRARDVASVMNKALENAHDEGAYLDNLKKELANGNDALRNEDARSPFYSALRNTPSFKDRNGGNHDPSKMKAVIYSKHFWSGQDRSGSSDKRKYGDPEAFRPDRGTGLVDMSRDRNIPRSPTSPGESFVNFDYGWFGAQTEADADKTVWTHGNHYHAPNGSLGAMHVYESKFRNWSDGYSDFDRGAYVVTFVPKSWNTAPDKVKQGWP | 6.91 | 1.02
GlyPro-mTGase from S. ladakanum (protein) GPDSDERVTPPAEPLDRMPDPYRPSYGRAETIVNNYIRKWQQVYSHRDGRKQQMTEEQREWLSYGCVGVTWVNSGQYPTNRLAFAFFDEDKYKNELKNGRPRSGETRAEFEGRVAKDSFDEAKGFQRARDVASVMNKALENAHDEGAYLDNLKKELANGNDALRNEDARSPFYSALRNTPSFKDRNGGNHDPSKMKAVIYSKHFWSGQDRSGSSDKRKYGDPEAFRPDRGTGLVDMSRDRNIPRSPTSPGESFVNFDYGWFGAQTEADADKTVWTHGNHYHAPNGSLGAMHVYESKFRNWSDGYSDFDRGAYVVTFVPKSWNTAPDKVKQGWP | 4.25 | 0.48
Met-mTGase from S. ladakanum (protein) MDSDERVTPPAEPLDRMPDPYRPSYGRAETIVNNYIRKWQQVYSHRDGRKQQMTEEQREWLSYGCVGVTWVNSGQYPTNRLAFAFFDEDKYKNELKNGRPRSGETRAEFEGRVAKDSFDEAKGFQRARDVASVMNKALENAHDEGAYLDNLKKELANGNDALRNEDARSPFYSALRNTPSFKDRNGGNHDPSKMKAVIYSKHFWSGQDRSGSSDKRKYGDPEAFRPDRGTGLVDMSRDRNIPRSPTSPGESFVNFDYGWFGAQTEADADKTVWTHGNHYHAPNGSLGAMHVYESKFRNWSDGYSDFDRGAYVVTFVPKSWNTAPDKVKQGWP | 4.74 | 0.8
Mature mTGase from S. ladakanum (protein) DSDERVTPPAEPLDRMPDPYRPSYGRAETIVNNYIRKWQQVYSHRDGRKQQMTEEQREWLSYGCVGVTWVNSGQYPTNRLAFAFFDEDKYKNELKNGRPRSGETRAEFEGRVAKDSFDEAKGFQRARDVASVMNKALENAHDEGAYLDNLKKELANGNDALRNEDARSPFYSALRNTPSFKDRNGGNHDPSKMKAVIYSKHFWSGQDRSGSSDKRKYGDPEAFRPDRGTGLVDMSRDRNIPRSPTSPGESFVNFDYGWFGAQTEADADKTVWTHGNHYHAPNGSLGAMHVYESKFRNWSDGYSDFDRGAYVVTFVPKSWNTAPDKVKQGWP | 3.55 | 0.63
